Results published in patent publication US20250313631A1 (HUMMINGBIRD BIOSCIENCE PTE, published 2025).
Where a chain is given by its changes, count along the chain named. Several values for one entry are separate records, joined by “and”; a condition that tells them apart may be missing. Identical values can stand only once. Like-named read-outs stand apart in the source and are kept apart here. Each block holds one binder with its values, some of them ahead of it.

What was measured:
[1] = target: T1, mouse FcRn (His-tagged, Sino Biological CT009-H08H) (mouse, UniProt Q61559 22-297); assay: BLI summary table, mFcRn, pH 5.8
T1 construct: also called mFcRn
T1 sequence (looked up): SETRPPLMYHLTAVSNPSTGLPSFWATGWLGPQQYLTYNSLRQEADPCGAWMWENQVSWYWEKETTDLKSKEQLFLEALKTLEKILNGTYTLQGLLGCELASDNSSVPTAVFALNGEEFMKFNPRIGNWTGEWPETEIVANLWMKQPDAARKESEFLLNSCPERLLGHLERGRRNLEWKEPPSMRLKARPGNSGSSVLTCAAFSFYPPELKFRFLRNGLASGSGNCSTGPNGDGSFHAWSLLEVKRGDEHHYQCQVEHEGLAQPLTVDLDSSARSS

[2] = target: T1, mouse FcRn (His-tagged, Sino Biological …); assay: BLI summary table, mFcRn, pH 5.8; remark: listed apart in the source
[3] = target: T1, mouse FcRn (His-tagged, Sino Biological …); assay: BLI summary table, mFcRn, pH 5.8; remark: listed apart in the source
[4] = target: T2, mouse FcγRIV (His-tagged, Sino Biological 50036-M08H) (mouse, UniProt A0A0B4J1G0 21-203); assay: BLI summary table, mFcgRIV, pH 7.2
T2 construct: also called mFcγRIV; not shown: the histidine tag (and any linker) of the Sino Biological construct 50036-M08H
T2 sequence: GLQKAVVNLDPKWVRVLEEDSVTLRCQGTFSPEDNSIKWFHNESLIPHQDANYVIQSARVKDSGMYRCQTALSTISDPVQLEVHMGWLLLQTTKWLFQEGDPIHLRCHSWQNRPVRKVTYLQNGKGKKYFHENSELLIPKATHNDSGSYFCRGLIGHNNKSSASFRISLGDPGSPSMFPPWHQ

[5] = target: T2, mouse FcγRIV (His-tagged, Sino …); assay: BLI summary table, mFcgRIV, pH 7.2; remark: listed apart in the source
[6] = target: T2, mouse FcγRIV (His-tagged, Sino …); assay: BLI summary table, mFcgRIV, pH 7.2; remark: listed apart in the source
[7] = target: T3, mouse FcγRIII (His-tagged, Sino Biological 50326-M08H) (mouse, UniProt P08508 31-215); assay: BLI summary table, mFcgRIII, pH 7.2
T3 construct: also called mFcγRIII
T3 sequence (looked up): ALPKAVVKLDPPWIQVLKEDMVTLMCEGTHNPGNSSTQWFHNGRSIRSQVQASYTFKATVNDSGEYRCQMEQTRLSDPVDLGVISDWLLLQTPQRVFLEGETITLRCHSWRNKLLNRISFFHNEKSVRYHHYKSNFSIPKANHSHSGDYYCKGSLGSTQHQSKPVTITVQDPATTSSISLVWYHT

[8] = target: T4, mouse FcγRIIb (His-tagged, Sino Biological 50030-M08H) (mouse, UniProt P08101 30-217); assay: BLI summary table, mFcgRIIb, pH 7.2
T4 construct: also called mFcγRIIb
T4 sequence (looked up): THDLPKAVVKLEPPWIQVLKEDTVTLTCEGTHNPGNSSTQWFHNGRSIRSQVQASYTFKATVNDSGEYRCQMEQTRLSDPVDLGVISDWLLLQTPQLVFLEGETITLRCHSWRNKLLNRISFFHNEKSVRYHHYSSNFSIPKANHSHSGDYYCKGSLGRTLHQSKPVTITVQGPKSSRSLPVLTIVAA

[9] = target: T3, mouse FcγRIII (His-tagged, Sino …); assay: BLI summary table, mFcgRIII, pH 7.2; remark: listed apart in the source
[10] = target: T4, mouse FcγRIIb (His-tagged, Sino …); assay: BLI summary table, mFcgRIIb, pH 7.2; remark: listed apart in the source
[11] = target: T3, mouse FcγRIII (His-tagged, Sino …); assay: BLI summary table, mFcgRIII, pH 7.2; remark: listed apart in the source
[12] = target: T4, mouse FcγRIIb (His-tagged, Sino …); assay: BLI summary table, mFcgRIIb, pH 7.2; remark: listed apart in the source
[13] = target: T1, mouse FcRn (His-tagged, Sino Biological …); assay: BLI (Octet QK384): His-tagged mFcRn on anti-Penta-HIS biosensor, antibody as analyte, PBS pH 5.8, global 1:1 fit; experiment 2
[14] = target: T2, mouse FcγRIV (His-tagged, Sino …); assay: BLI (Octet QK384): His-tagged receptor on anti-Penta-HIS biosensor, antibody as analyte, PBS pH 7.2, global 1:1 fit; experiment 2
[15] = target: T3, mouse FcγRIII (His-tagged, Sino …); assay: as above
[16] = target: T4, mouse FcγRIIb (His-tagged, Sino …); assay: as above
[17] = target: T2, mouse FcγRIV (His-tagged, Sino …); assay: BLI (Octet QK384): His-tagged receptor on anti-Penta-HIS biosensor, antibody as analyte, PBS pH 7.2
[18] = target: T1, mouse FcRn (His-tagged, Sino Biological …); assay: BLI (Octet QK384): His-tagged mFcRn on anti-Penta-HIS biosensor, antibody as analyte, PBS pH 5.8, global 1:1 fit
[19] = target: T3, mouse FcγRIII (His-tagged, Sino …); assay: BLI (Octet QK384): His-tagged receptor on anti-Penta-HIS biosensor, antibody as analyte, PBS pH 7.2, global 1:1 fit
[20] = target: T4, mouse FcγRIIb (His-tagged, Sino …); assay: as above
[21] = target: T2, mouse FcγRIV (His-tagged, Sino …); assay: BLI (Octet QK384): His-tagged receptor on anti-Penta-HIS biosensor, antibody as analyte, PBS pH 7.2; remark: listed apart in the source
[22] = target: T3, mouse FcγRIII (His-tagged, Sino …); assay: as above
[23] = target: T4, mouse FcγRIIb (His-tagged, Sino …); assay: as above
[24] = target: T1, mouse FcRn (His-tagged, Sino Biological …); assay: BLI (Octet QK384): His-tagged mFcRn on anti-Penta-HIS biosensor, antibody as analyte, PBS pH 5.8, global 1:1 fit; remark: listed apart in the source

kon [1]: 190000 M⁻¹ s⁻¹ and 220000 M⁻¹ s⁻¹
koff [2]: 0.0059 s⁻¹ and 0.011 s⁻¹
Kd [3]: 31.5 nM and 49.5 nM
kon [4]: 96000 M⁻¹ s⁻¹ and 92000 M⁻¹ s⁻¹
koff [5]: 0.025 s⁻¹ and 0.034 s⁻¹
Kd [6]: 258 nM and 372 nM
kon [7]: 55000 M⁻¹ s⁻¹ and 67000 M⁻¹ s⁻¹
kon [8]: 51000 M⁻¹ s⁻¹ and 55000 M⁻¹ s⁻¹
koff [9]: 0.044 s⁻¹ and 0.066 s⁻¹
koff [10]: 0.045 s⁻¹ and 0.12 s⁻¹
Kd [11]: 794 nM and 977 nM
Kd [12]: 876 nM and 2190 nM
Kd [13]: 49.6 nM
koff [13]: 0.011 s⁻¹
kon [13]: 220000 M⁻¹ s⁻¹
Kd [14]: 372 nM
koff [14]: 0.034 s⁻¹
kon [14]: 92000 M⁻¹ s⁻¹
Kd [15]: 977 nM
koff [15]: 0.066 s⁻¹
kon [15]: 67000 M⁻¹ s⁻¹
Kd [16]: 2190 nM
koff [16]: 0.12 s⁻¹
kon [16]: 55000 M⁻¹ s⁻¹
B1: 4M2-C12 mIgG2a (antibody)
heavy: EVKLVESGPGLVKPSQSLSLTCTVTGYSITSDYAWNWIRQFPGNKLEWMGYITYSGNISYNPSLRSRISITRDTSKNQFFLQLNSVTPEDTATYSCARSLYYPWYFDVWGAGTTVTVSSAKTTAPSVYPLAPVCGDTTGSSVTLGCLVKGYFPEPVTLTWNSGSLSSGVHTFPAVLQSDLYTLSSSVTVTSSTWPSQSITCNVAHPASSTKVDKKIEPRGPTIKPCPPCKCPAPNLLGGPSVFIFPPKIKDVLMISLSPIVTCVVVDVSEDDPDVQISWFVNNVEVHTAQTQTHREDYNSTLRVVSALPIQHQDWMSGKEFKCKVNNKDLPAPIERTISKPKGSVRAPQVYVLPPPEEEMTKKQVTLTCMVTDFMPEDIYVEWTNNGKTELNYKNTEPVLDSDGSYFMYSKLRVEKKNWVERNSYSCSVVHEGLHNHHTTKSFSRTPGK
light: DIVITQTPAILSTSPGEKVTMTCRASSSVGYIHWYQQKPGSSPKPWIYATSNLASGVPARFSGSGSGTSNSLTITRVEAEDAATYYCQQWSSYPPITFGGGTKLEVKRADAAPTVSIFPPSSEQLTSGGASVVCFLNNFYPKDINVKWKIDGSERQNGVLNSWTDQDSKDSTYSMSSTLTLTKDEYERHNSYTCEATHKTSTSPIVKSFNRNEC
notes: mouse IgG2a format, made in CHO cells; also called 4M2-C12 IgG2a

kon [1]: 170000 M⁻¹ s⁻¹
koff [2]: 0.016 s⁻¹
Kd [3]: 93.9 nM
kon [7]: 270000 M⁻¹ s⁻¹
kon [8]: 90000 M⁻¹ s⁻¹
koff [9]: 0.125 s⁻¹
koff [10]: 0.117 s⁻¹
Kd [11]: 455 nM
Kd [12]: 1300 nM
binding result [17]: no binding
Kd [18]: 93.9 nM
koff [18]: 0.016 s⁻¹
kon [18]: 170000 M⁻¹ s⁻¹
Kd [19]: 455 nM
koff [19]: 0.125 s⁻¹
kon [19]: 270000 M⁻¹ s⁻¹
Kd [20]: 1300 nM
koff [20]: 0.117 s⁻¹
kon [20]: 90000 M⁻¹ s⁻¹
B2: 4M2-C12 mIgG1 (antibody)
heavy chain: EVKLVESGPGLVKPSQSLSLTCTVTGYSITSDYAWNWIRQFPGNKLEWMGYITYSGNISYNPSLRSRISITRDTSKNQFFLQLNSVTPEDTATYSCARSLYYPWYFDVWGAGTTVTVSSAKTTPPSVYPLAPGSAAQTNSMVTLGCLVKGYFPEPVTVTWNSGSLSSGVHTFPAVLQSDLYTLSSSVTVPSSTWPSETVTCNVAHPASSTKVDKKIVPRDCGCKPCICTVPEVSSVFIFPPKPKDVLTITLTPKVTCVVVDISKDDPEVQFSWFVDDVEVHTAQTQPREEQFNSTFRSVSELPIMHQDWLNGKEFKCRVNSAAFPAPIEKTISKTKGRPKAPQVYTIPPPKEQMAKDKVSLTCMITDFFPEDITVEWQWNGQPAENYKNTQPIMNTNGSYFVYSKLNVQKSNWEAGNTFTCSVLHEGLHNHHTEKSLSHSPGK
light chain: B1 light

kon [1]: 270000 M⁻¹ s⁻¹
koff [2]: 0.0097 s⁻¹
Kd [3]: 35.8 nM
binding result [21]: no binding
binding result [22]: no binding
binding result [23]: no binding
Kd [24]: 35.8 nM
koff [24]: 0.0097 s⁻¹
kon [24]: 270000 M⁻¹ s⁻¹
B3: 4M2-C12 mIgG2a LALA PG (antibody)
heavy: B1 heavy with L236A, L237A, P331G
light: B1 light
